# Experiments:
# HeLa Kyoto [1] = test: thermal stability score vs G1/S (z-score of summed log2 fold changes over temperatures); higher = more thermally stable than in G1/S
# HeLa Kyoto [2] = test: melting temperature (median over replicates), in situ; higher = more thermally stable
# HeLa Kyoto [3] = test: solubility in G1/S (NP-40 vs SDS abundance) (log2 ratio); higher = more soluble; details: cell cycle stage: G1/S
# HeLa Kyoto [4] = test: solubility change mitosis vs G1/S (difference of NP-40 vs SDS log2 ratios) (log2 ratio difference); higher = more soluble in mitosis
# [5] = cell cycle stage: early G1 (4.5 h after nocodazole release)
# 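For melting temperature (median over replicates), in situ in this document: HeLa Kyoto cells synchronized by double thymidine or nocodazole block, proteins quantified by TMT10plex mass spectrometry, three independent biological replicates.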
# 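For solubility change mitosis vs G1/S (difference of NP-40 vs SDS log2 ratios) in this document: synchronized HeLa Kyoto cells (double thymidine block for G1/S, nocodazole release for mitosis), protein amounts in NP-40 versus SDS lysates quantified by mass spectrometry, three biological replicates.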
# 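For solubility in G1/S (NP-40 vs SDS abundance) in this document: HeLa Kyoto cells arrested at G1/S by double thymidine block, proteins quantified by TMT10plex mass spectrometry in mild NP-40 versus SDS extracts, three biological replicates.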
# 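For thermal stability score vs G1/S (z-score of summed log2 fold changes over temperatures) in this document: synchronized HeLa Kyoto cells, proteins quantified by TMT10plex mass spectrometry, three biological replicates, mitosis taken 0.5 h after nocodazole release, G1/S directly after double thymidine block.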
Substance,thermal stability score (HeLa Kyoto [1]; [5]),thermal stability score (HeLa Kyoto [1]; cell cycle stage: mitosis),melting temperature (HeLa Kyoto [2]; cell cycle stage: G1/S) [°C],melting temperature (HeLa Kyoto [2]; cell cycle stage: mitosis) [°C],solubility in G1/S (log2) (HeLa Kyoto [3]),solubility change mitosis (log2) (HeLa Kyoto [4])
MAAPEGSGLGEDARLDQETAQWLRWDKNSLTLEAVKRLIAEGNKEELRKCFGARMEFGTAGLRAAMGPGISRMNDLTIIQTTQGFCRYLEKQFSDLKQKGIVISFDARAHPSSGGSSRRFARLAATTFISQGIPVYLFSDITPTPFVPFTVSHLKLCAGIMITASHNPKQDNGYKVYWDNGAQIISPHDKGISQAIEENLEPWPQAWDDSLIDSSPLLHNPSASINNDYFEDLKKYCFHRSVNRETKVKFVHTSVHGVGHSFVQSAFKAFDLVPPEAVPEQKDPDPEFPTVKYPNPEEGKGVLTLSFALADKTKARIVLANDPDADRLAVAEKQDSGEWRVFSGNELGALLGWWLFTSWKEKNQDRSALKDTYMLSSTVSSKILRAIALKEGFHFEETLTGFKWMGNRAKQLIDQGKTVLFAFEEAIGYMCCPFVLDKDGVSAAVISAELASFLATKNLSLSQQLKAIYVEYGYHITKASYFICHDQETIKKLFENLRNYDGKNNYPKACGKFEISAIRDLTTGYDDSQPDKKAVLPTSKSSQMITFTFANGGVATMRTSGTEPKIKYYAELCAPPGNSDPEQLKKELNELVSAIEEHFFQPQKYNLQPKAD [PGM2],-0.0187,-1.07,59.1,58.5,0.169,-0.112
MAHQTGIHATEELKEFFAKARAGSVRLIKVVIEDEQLVLGASQEPVGRWDQDYDRAVLPLLDAQQPCYLLYRLDSQNAQGFEWLFLAWSPDNSPVRLKMLYAATRATVKKEFGGGHIKDELFGTVKDDLSFAGYQKHLSSCAAPAPLTSAERELQQIRINEVKTEISVESKHQTLQGLAFPLQPEAQRALQQLKQKMVNYIQMKLDLERETIELVHTEPTDVAQLPSRVPRDAARYHFFLYKHTHEGDPLESVVFIYSMPGYKCSIKERMLYSSCKSRLLDSVEQDFHLEIAKKIEIGDGAELTAEFLYDEVHPKQHAFKQAFAKPKGPGGKRGHKRLIRGPGENGDDS [TWF2],-0.101,-1.11,53.6,53,0.275,-0.23
MIVQRVVLNSRPGKNGNPVAENFRMEEVYLPDNINEGQVQVRTLYLSVDPYMRCRMNEDTGTDYITPWQLSQVVDGGGIGIIEESKHTNLTKGDFVTSFYWPWQTKVILDGNSLEKVDPQLVDGHLSYFLGAIGMPGLTSLIGIQEKGHITAGSNKTMVVSGAAGACGSVAGQIGHFLGCSRVVGICGTHEKCILLTSELGFDAAINYKKDNVAEQLRESCPAGVDVYFDNVGGNISDTVISQMNENSHIILCGQISQYNKDVPYPPPLSPAIEAIQKERNITRERFLVLNYKDKFEPGILQLSQWFKEGKLKIKETVINGLENMGAAFQSMMTGGNIGKQIVCISEEISL [PTGR2],0.0557,-0.682,50.5,50.6,0.0876,-0.0529
MFSFEGDFKTRPKVSLGGASRKEEKASLLHRTQEERRKREEERRRLKNAIIIQSFIRGYRDRKQQYSIQRSAFDRCATLSQSGGAFPIANGPNLTLLVRQLLFFYKQNEDSKRLIWLYQNLIKHSSLFVKQLDGSERLTCLFQIKRLMSLCCRLLQNCNDDSLNVALPMRMLEVFSSENTYLPVLQDASYVVSVIEQILHYMIHNGYYRSLYLLINSKLPSSIEYSDLSRVPIAKILLENVLKPLHFTYNSCPEGARQQVFTAFTEEFLAAPFTDQIFHFIIPALADAQTVFPYEPFLNALLLIESRCSRKSGGAPWLFYFVLTVGENYLGALSEEGLLVYLRVLQTFLSQLPVSPASASCHDSASDSEEESEEADKPSSPEDGRLSVSYITEECLKKLDTKQQTNTLLNLVWRDSASEEVFTTMASVCHTLMVQHRMMVPKVRLLYSLAFNARFLRHLWFLISSMSTRMITGSMVPLLQVISRGSPMSFEDSSRIIPLFYLFSSLFSHSLISIHDNEFFGDPIEVVGQRQSSMMPFTLEELIMLSRCLRDACLGIIKLAYPETKPEVREEYITAFQSIGVTTSSEMQQCIQMEQKRWIQLFKVITNLVKMLKSRDTRRNFCPPNHWLSEQEDIKADKVTQLYVPASRHVWRFRRMGRIGPLQSTLDVGLESPPLSVSEERQLAVLTELPFVVPFEERVKIFQRLIYADKQEVQGDGPFLDGINVTIRRNYIYEDAYDKLSPENEPDLKKRIRVHLLNAHGLDEAGIDGGGIFREFLNELLKSGFNPNQGFFKTTNEGLLYPNPAAQMLVGDSFARHYYFLGRMLGKALYENMLVELPFAGFFLSKLLGTSADVDIHHLASLDPEVYKNLLFLKSYEDDVEELGLNFTVVNNDLGEAQVVELKFGGKDIPVTSANRIAYIHLVADYRLNRQIRQHCLAFRQGLANVVSLEWLRMFDQQEIQVLISGAQVPISLEDLKSFTNYSGGYSADHPVIKVFWRVVEGFTDEEKRKLLKFVTSCSRPPLLGFKELYPAFCIHNGGSDLERLPTASTCMNLLKLPEFYDETLLRSKLLYAIECAAGFELS [UBE3C],0.499,0.996,50.3,50.1,-0.181,-0.263
INADL,0.59,1.68,47.4,49.2,-0.0157,-0.068
MSLYPSLEDLKVDKVIQAQTAFSANPANPAILSEASAPIPHDGNLYPRLYPELSQYMGLSLNEEEIRANVAVVSGAPLQGQLVARPSSINYMVAPVTGNDVGIRRAEIKQGIREVILCKDQDGKIGLRLKSIDNGIFVQLVQANSPASLVGLRFGDQVLQINGENCAGWSSDKAHKVLKQAFGEKITMTIRDRPFERTITMHKDSTGHVGFIFKNGKITSIVKDSSAARNGLLTEHNICEINGQNVIGLKDSQIADILSTSGTVVTITIMPAFIFEHIIKRMAPSIMKSLMDHTIPEV [SDCBP],-1.02,-6.31,52.6,51.4,0.00564,-0.0317
MKLLTRAGSFSRFYSLKVAPKVKATAAPAGAPPQPQDLEFTKLPNGLVIASLENYSPVSRIGLFIKAGSRYEDFSNLGTTHLLRLTSSLTTKGASSFKITRGIEAVGGKLSVTATRENMAYTVECLRGDVDILMEFLLNVTTAPEFRRWEVADLQPQLKIDKAVAFQNPQTHVIENLHAAAYRNALANPLYCPDYRIGKVTSEELHYFVQNHFTSARMALIGLGVSHPVLKQVAEQFLNMRGGLGLSGAKANYRGGEIREQNGDSLVHAAFVAESAVAGSAEANAFSVLQHVLGAGPHVKRGSNTTSHLHQAVAKATQQPFDVSAFNASYSDSGLFGIYTISQATAAGDVIKAAYNQVKTIAQGNLSNTDVQAAKNKLKAGYLMSVESSECFLEEVGSQALVAGSYMPPSTVLQQIDSVANADIINAAKKFVSGQKSMAASGNLGHTPFVDEL [UQCRC2],-1.64,-4.8,55.8,54.7,0.243,-0.00613

# From the supplement of paper PMC5998384
